Data: patent publication US20260266828A1, “BIOMARKERS FOR PREDICTING CANCER TREATMENT EFFICACY” (Arcus Biosciences, Inc., priority 2023, published 2026)

System: metastatic (Stage IV) squamous or non-squamous NSCLC
Assay: Randomized first-line trial: zimberelimab vs domvanalimab + zimberelimab vs etrumadenant + domvanalimab + zimberelimab; cORR and PFS in ITT and biomarker selected subsets
Assay type: in vivo, human
Settings: for Events: PFS events; for HR vs. Low: PFS; for PFS: median
Experimental: The potential treatment benefit of zimberelimab monotherapy vs. domvanalimab plus zimberelimab combination therapy vs. etrumadenant plus domvanalimab plus zimberelimab combination therapy was evaluated in 150 people as a first-line treatment for metastatic (Stage IV) squamous or non-squamous NSCLC. Participants were randomized 1:1:1 across the three study arms and treated until disease progression or loss of clinical benefit. Arm 1 received zimberelimab 360 mg IV Q3W (Arm 1=Z). Arm 2 received domvanalimab 15 mg/kg IV Q3W and zimberelimab 360 mg IV Q3W (Arm 2=DZ). Arm 3 received domvanalimab 15 mg/kg IV Q3W, zimberelimab 360 mg IV Q3W, and etrumadenant 150 mg PO QD (Arm 3=EDZ). Participants in the zimberelimab monotherapy arm (Arm 1) with confirmed progression had the option to cross over to the triplet arm (Arm 3).
EGFR and ALK mutational testing was not required for participants with squamous histology.
The co-primary endpoints for this study were objective response rate (ORR) and progression free survival (PFS). ORR was defined as the percentage of participants with a best overall response (BOR) of either compete response (CR) or partial response (PR). Participants with measurable disease at baseline who discontinued prior to their first scheduled scan were considered non-responders. PFS was defined from the time of randomization until first documentation of disease progression, or death from any cause, whichever occurred first. In addition to the co-primary endpoints, disease control rate (DCR, defined as the percentage of participants with a BOR of CR, PR, or stable disease (SD) for >6 months), duration of response (DoR, defined as the time from first documentation of disease response (CR or PR) until first documentation of confirmed progressive disease) and overall survival (OS, defined as the time from randomization until death due to any cause) were also evaluated as exploratory endpoints. Efficacy analyses were based on the intent-to-treat (ITT) population, which comprises all randomized participants.
As part of an exploratory analysis, clinical outcomes in biomarker selected subsets were investigated retrospectively. Central submission of adequate tumor tissue and central confirmation of PD-L1 status was not required for study enrollment. Thus, the number of biomarker evaluable patients (BEP) varied by biomarker and was less than the ITT population. Expression levels of CD155, CD226, and CD73 were measured in baseline tumor biopsy samples (e.g., formalin-fixed, paraffin-embedded tissue or freshly cut, serial unstained sections), along with baseline expression level of PD-L1. The baseline samples were archival tumor samples obtained ≤24 months prior to screening or fresh biopsy samples obtained prior to the first dose of treatment. PD-L1 expression level in the BEP subset was measured at a central lab using the Ventana SP263 IHC assay, while enrollment in the trial was based on PD-L1 expression ([…] TC or TPS) locally assessed by Ventana SP263 assay or PharmDx 22C3 assay. CD155, CD226 and CD73 expression levels were measured at a central lab as described in Example L. PD-L1, CD155, CD226, and CD73 expression at baseline are summarized in Table 3. The best predictive biomarker of activity in Arm 1 was CD155 (e.g., CD155 low). At least three biomarkers (e.g., PD-L1 high, CD155 high, and CD73 low) enrich for clinical activity of domvanalimab and there was an even greater enhancement in patients that fulfill two of the biomarkers (analyses not shown).
Without rescoring CD155 intensity (i.e., using the original values scored by the pathologist), expression was characterized by two different scoring algorithms—namely, % TC and % TC 2-3+. The coefficient of determination (R^2 value) was used to look at the variance between each approach and CD155 expression characterization by H-scores. While % TC 2-3+ and H-score are highly concordant (R^2 value of 0.94), less concordance was observed between % TC and H-score (R^2 value of 0.71). […]

[1] = CD155 High (2+ or 3+ % TC ≥ 40%)
[2] = CD155 Low (2+ or 3+ % TC < 40%)

B1: zimberelimab (antibody, chains of the INN, looked up, V domains shown)
VH: QLQLQESGPGLVKPSETLTLTCTVSADSISSTTYYWVWIRQPPGKGLEWIGSISYSGSTYYNPSLKSRVTVSVDTSKNQFSLKLNSVAATDTALYYCARHLGYNGRYLPFDYWGQGTLVTVSS
VL: QSALTQPASVSGSPGQSITISCTGTSSDVGFYNYVSWYQQHPGKAPELMIYDVSNRPSGVSDRFSGSKSGNTASLTISGLQAEDEADYYCSSYTSISTWVFGGGTKLTVL
notes: zimberelimab monotherapy 360 mg IV Q3W; anti-PD-1 antibody
With B1 the “Event Rate” value (BEP for CD155, unselected) was 65%, the cORR (BEP for CD155, unselected) was 32% and the cORR (CD73 High: ≥61% TC, BEP) was 42%. The cORR (CD73 Low: <61% TC, BEP) was 12%, the “Event Rate” value [1] was 82% and the cORR [1] was 18%. For the same molecule, the cORR (CD155 High: H-score ≥ 135, BEP) was 24%, the “Event Rate” value [2] was 47% and the cORR [2] was 47%. For the same molecule, the cORR (CD155 Low: H-score < 135, BEP) was 41%, the cORR (CD226 High: ≥4% IC, BEP) was 39% and the cORR (CD226 Low: <4% IC, BEP) was 27%. The “PFS Events (%)” value (ITT population) was “(64%)”, the “PFS Median” value (ITT population) was 5.4 mos and the “PFS Events” value (ITT population, number of events, n = 50 per arm) was 32. The cORR (ITT population, planned interim analysis) was 30%, the cORR (PD-L1 High: ≥50% TC, BEP) was 33% and the cORR (PD-L1 Low: <50% TC, BEP) was 27%. For the same molecule, the Events (CD73 High: ≥61% TC, BEP) was 68%, the Events (CD73 Low: <61% TC, BEP) was 65% and the Events (CD155 High: H-score ≥ 135, BEP) was 82%. For the same molecule, the Events (CD155 Low: H-score < 135, BEP) was 47%, the Events (CD226 High: ≥4% IC, BEP) was 69% and the Events (CD226 Low: <4% IC, BEP) was 73%. For the same molecule, the Events (PD-L1 High: ≥50% TC, BEP) was 67%, the Events (PD-L1 Low: <50% TC, BEP) was 60% and the “HR vs. Low” value (CD73 High (≥61% TC) vs. Low within the arm) was 0.63. The “HR vs. Low” value (CD155 High (H-score ≥ 135) vs. Low within the arm) was 0.38, the “HR vs. Low” value (CD226 High (≥4% IC) vs. Low within the arm) was 0.473 and the “HR vs. Low” value (PD-L1 High (≥50% TC) vs. Low within the arm) was 1.04. The PFS (BEP for CD155, unselected) was 5.4 mo, the PFS (CD73 High: ≥61% TC, BEP) was 9.6 mo and the PFS (CD73 Low: <61% TC, BEP) was 3.5 mo. It also gave a PFS [1] of 3.5 mo, a PFS (CD155 High: H-score ≥ 135, BEP) of 3.5 mo and a PFS [2] of 9.7 mo. It also gave a PFS (CD155 Low: H-score < 135, BEP) of 9.7 mo, a PFS (CD226 High: ≥4% IC, BEP) of 5.4 mo and a PFS (CD226 Low: <4% IC, BEP) of 2.7 mo. For the same molecule, the PFS (PD-L1 High: ≥50% TC, BEP) was 5.7 mo and the PFS (PD-L1 Low: <50% TC, BEP) was 5.4 mo.
